Eleven molecules from patent US12281162 (LANOVA MEDICINES DEVELOPMENT, dated 2025) can be followed below.

In assay [1] the target is T1, human G-protein-coupled receptor family C group 5 member D (GPRC5D) (human, UniProt Q9NZD1 1-345).
T1 construct: whole, on cells; also called human GPRC5D protein
Description: FACS, CHO-K1/GPRC5D.

The target of assay [2] is T1, human G-protein-coupled receptor family …. Description: FACS, NCI-H929 cells. In general terms: In flow cytometry, cells or beads pass a laser one at a time.
For assay [3] the target is unchanged. Description: FACS, CHO-K1/human GPRC5D.
Assay [4] shares this target. Description: FACS, CHO-K1/human GPRC5D, chimeric antibody. How it is done:
CHO—K1 cells stably expressed human GPRC5D, were harvested from flasks. 100 µl of 1×10⁶ cells/ml of cells were incubated with primary chimeric antibodies in 3-fold serial dilutions starting from 300 nM to 0.001 nM for 30 minutes on ice. After being washed with 200 µl of FACS buffer twice, cells were incubated with secondary antibody for 30 minutes on ice. Cells were washed with 200 µl of FACS buffer twice and transferred to BD Falcon 5 ml tube and analyzed by FACS.

Assay [5] shares this target. The experiment in a line: FACS, CHO-K1/GPRC5D. The source holds these as a separate data set.
The target is the same in assay [6]. The experiment in a line: FACS, CHO-K1/GPRC5D. This is another data set of the same source.

T1 sequence (Q9NZD1 whole entry): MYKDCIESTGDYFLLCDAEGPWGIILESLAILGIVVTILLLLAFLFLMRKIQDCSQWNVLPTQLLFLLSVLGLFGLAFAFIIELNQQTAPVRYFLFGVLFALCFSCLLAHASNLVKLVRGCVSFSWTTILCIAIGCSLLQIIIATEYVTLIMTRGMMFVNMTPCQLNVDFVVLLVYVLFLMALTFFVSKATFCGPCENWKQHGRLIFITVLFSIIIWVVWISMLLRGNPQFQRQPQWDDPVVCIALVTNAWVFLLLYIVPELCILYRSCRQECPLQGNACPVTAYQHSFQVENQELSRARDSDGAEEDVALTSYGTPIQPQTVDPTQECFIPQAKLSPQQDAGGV

B1: 34-XI (antibody, V domains shown)
VH: EVHLVESGGDLVKPGGSLKLSCAASGFTFSSYGMSWVRQTPDKRLEWVATISSGGSYTYYPDSVKGRFTISRDNAKNTLNLQMSSLKSEDTAMYYCARQGGDAMDYWGQGTSVTVSS
VL: DIVLTQSPATLSVTPGDSVSLSCRASQSINNNLHWYQQKSHESPRLLIKYASQSISGIPSRFSGSGSGTDFTLSINSVETEDFGMYFCQQSNSRLTFGAGTKLELK
notes: also called 34D3H1 (chimeric)
In the case of B1, the Bottom came out at 16500 in assay [1], 181 in assay [2], 689 in assay [3] and 3450 in assay [4]. Besides, the LogEC50 is 0.495 in assay [1], 0.759 in assay [2], 0.578 in assay [3] and 0.521 in assay [4]. The Span in assay [1] is 176000; in assay [2], 18000; in assay [3] it was 117000; in assay [4] it was 504000. Moreover, the Top in assay [1] stood at 192000; in assay [2], 18100; in assay [3] it was 118000; in assay [4], 508000.

B2: 38A10E9A11 (chimeric) (antibody, V domains shown)
VH: QVQLQQSGAELARPGASVKMSCKASGYTFTTYTMHWVKQRPGQGLEWIGYINPSSGYTNYNQKFKDKATLTAGKSSSTAYMQLSSLTSEDSAVYYCASLRSRGYFDYWGRGTTLTVSS
VL: DIVMTQSQKFLSTSVGDRVSITCKASQNVGTAVAWYQQKPGQSPKLLIYSASNRYTGVPDRFTGSGSGTDFTLTISNMQSEDLAGYFCQQYSSYPYTFGGGTKLEIK
notes: also called 38A9E10A11
In assay [4], B2 had a Bottom of 3020, a LogEC50 of 0.245, a Span of 384000 and a Top of 387000.

B3: 37B9C4-XI (antibody, V domains shown)
VH: EVNLEESGGGLVQPGGSMKLSCVASGFTFSDYWMNWVRQSPEKGLEWVAEIRLKSNNYATHYAESVKGRFTISRDDSKSSVYLQMNNLRAEDTGIYYCTRPLLWFRRYYAMDYWGQGTSVTVSS
VL: DIQMTQTTSSLSASLGDRITISCSASQGISNYLNWYQQKPDGTVKLLIYYTSSLHSGVPSRFSGSGSGTDYSLTISNLEPADIATYYCQQYSKLPFTFGSGTKLEIK
notes: also called 37B9C4 (chimeric); 37-XI
For B3, the Bottom came to 11700 in assay [5], 338 in assay [2], 793 in assay [3] and 2080 in assay [4]. Moreover, the LogEC50 in assay [5] is 0.236; in assay [2] it was -0.0562; in assay [3], 0.388; in assay [4], 0.249. The Span in assay [5] was determined as 177000; in assay [2] it was 13500; in assay [3] it was 113000; in assay [4], 403000. Moreover, the Top is 188000 in assay [5], 13800 in assay [2], 113000 in assay [3] and 405000 in assay [4].

B4: 29B2C10 (chimeric) (antibody, V domains shown)
VH: EVQLQQSGPELVKPGASMKLSCKASGYSFTGYTMHWVKQSHGENLEWIGLINPYNGGTNYNQKFKGKATLTVDKSSSTAYMELLSLTSEDSAVYYCSRWGLRRAMDYWGQGTSVTVSS
VL: DIVMTQSQKFMSTSVGDRVSVTCKASQNVGSNVAWYQQKPGQSPKALIYSASYRYSGVPDRFTGNGSGTDFTLTISNVQSEDLAEYFCQQYYNSPWTFGGGTKLEIK
Consider B4, for which, in assay [4], the Bottom was 4330, the LogEC50 stood at 0.342, the Span worked out at 426000 and the Top amounted to 430000.

B5: 40A5B2 (chimeric) (antibody, V domains shown)
VH: EVQLQQSGPELVKPGASVKMSCKASGYTFTRNIMHWVKQKPGQGLEWIGYINPYNAGSKYNEKFKGKATLTSDISSSTAYMELSSLTSEDSAVYYCAREEVYYRYGAWFAYWGHGTLVTVSA
VL: DIVLTQSPASLAVSLGQRATISCRASQSVSTSSYSYMHWYQQKPGQPPKLLIKYASNLESGVPARFSGSGSGTDFTLNIHPVEEEDTATYYCQHSWEIPRTFGGGTKLEIK
In assay [4], B5 showed a Bottom of 1490, a LogEC50 of 0.344, a Span of 439000 and a Top of 440000.

B6: 34-H1L1 (antibody, V domains shown)
VH: EVQLVESGGGLVKPGGSLRLSCAASGFTFSSYGMSWVRQAPGKGLEWVSTISSGGSYTYYPDSVKGRFTISRDNAKNSLYLQMNSLRAEDTAVYYCARQGGDAMDYWGQGTLVTVSS
VL: DIQMTQSPSSLSASVGDRVTITCRASQSINNNLHWYQQKPGKAPKLLIYYASQSISGVPSRFSGSGSGTDFTLTISSLQPEDFATYYCQQSNSRLTFGGGTKVEIK
notes: humanized 34D3H1, VH v1 x VL v1
Take B6: in assay [1], the Bottom was 10900, the LogEC50 was 0.591, the Span is 186000 and the Top is 197000. In assay [2], this molecule had a Bottom of 199, a LogEC50 of 0.805, a Span of 17700 and a Top of 17900. In assay [3], this molecule showed a Bottom of 171, a LogEC50 of 0.781, a Span of 119000 and a Top of 119000.

B7: 58F9G10-XI (antibody, V domains shown)
VH: EVQLQQSGPELVKTGASVKISCKASGYSFTGYYIHWVKQSHGKSLEWIGYISCYNGATSFNQKFKGKATFTVDTSSSTAYMQFNSLTSEDSAVYYCARTELRGPWFAYWGQGTLVTVSA
VL: QTVLTQSPAIMSASPGEKVTMTCSASSSVSYMNWYQQKSGTSPKRWIYDTSKLASGVPARFSGSGSGTSYSLTISSMEAEDAATYYCQQWSNNPLTFGAGTKLELK
notes: also called 58F9G10 (chimeric); 58-XI
On to B7, for which the Bottom in assay [6] is 6700; in assay [2], 261; in assay [3], 52.2; in assay [4], -522. Moreover, the LogEC50 in assay [6] is 0.292; in assay [2] it was 0.16; in assay [3], 0.556; in assay [4], 0.36. Also, the Span was 121000 in assay [6], 14500 in assay [2], 107000 in assay [3] and 415000 in assay [4]. Further, the Top in assay [6] came out at 127000; in assay [2], 14700; in assay [3] it was 107000; in assay [4] it was 415000.

B8: 21C3C11B3 (chimeric) (antibody, V domains shown)
VH: QVQLQQSGAELVRPGTSVKVSCKASGYAFINYLIEWIKQRPGQGLEWIGMINPGSGGTNYNEKFKDKATLTADKSSSTAYMQLSSLTSDDSAVYFCARNWDVWGQGTTLTVSS
VL: DVVMTQSPLSLPVSLGDQASVSCRSSQSLVHSTGNTYLHWYLQKPGQSPKLLIYKVSNRFSGVPDRFSGSGSGTDFTLKISRVEAEDLGVYFCSQSTHVPWTFGGGTKLEIK
With B8, in assay [4], the Bottom was 5770, the LogEC50 came out at 0.229, the Span was 398000 and the Top turned out to be 404000.

B9: 37-H1L1 (antibody, V domains shown)
VH: EVQLVESGGGLVQPGGSLRLSCAASGFTFSDYWMNWVRQAPGKGLEWVAEIRLKSNNYATHYAESVKGRFTISRDNAKNSLYLQMNSLRAEDTAVYYCARPLLWFRRYYAMDYWGQGTLVTVSS
VL: DIQMTQSPSSLSASVGDRVTITCSASQGISNYLNWYQQKPGKAPKLLIYYTSSLHSGVPSRFSGSGSGTDFTLTISSLQPEDFATYYCQQYSKLPFTFGQGTKLEIK
notes: humanized 37B9C4, VH v1 x VL v1; also called 37B9C4 (H1L1)
For the molecule B9, in assay [5], the Bottom worked out at 9600, the LogEC50 turned out to be 0.357, the Span turned out to be 169000 and the Top was 178000. In assay [2], this molecule yielded a Bottom of 342, a LogEC50 of -0.199, a Span of 13200 and a Top of 13500. In assay [3], the Bottom was 523, the LogEC50 was determined as 0.511, the Span was 102000 and the Top was determined as 102000.

B10: 58-H1L1 (antibody, V domains shown)
VH: QVQLVQSGAEVKKPGASVKVSCKASGYSFTGYYIHWVRQAPGQGLEWMGYISSYNAATSFNQKFKGRVTMTRDTSTSTVYMELSSLRSEDTAVYYCARTELRGPWFAYWGQGTLVTVSS
VL: DIQMTQSPSSLSASVGDRVTITCSASSSVSYMNWYQQKPGKAPKLLIYDTSKLASGVPSRFSGSGSGTDFTLTISSLQPEDFATYYCQQWSNNPLTFGQGTKLEIK
notes: humanized 58F9G10, VH v1 x VL v1
In assay [6], B10 returned a Bottom of 15000, a LogEC50 of 0.252, a Span of 92800 and a Top of 108000. In assay [2], this molecule had a Bottom of 281, a LogEC50 of 0.165, a Span of 13200 and a Top of 13500. Moreover, in assay [3], the Bottom was 275, the LogEC50 was determined as 0.579, the Span came out at 99200 and the Top is 99500.

B11: 58-H3L1 (antibody, V domains shown)
VH: QVQLVQSGAEVKKPGASVKVSCKASGYSFTGYYIHWVKQAPGQGLEWIGYISSYNAATSFNQKFKGRVTFTVDTSTSTVYMEFSSLRSEDTAVYYCARTELRGPWFAYWGQGTLVTVSS
VL: DIQMTQSPSSLSASVGDRVTITCSASSSVSYMNWYQQKPGKAPKLLIYDTSKLASGVPSRFSGSGSGTDFTLTISSLQPEDFATYYCQQWSNNPLTFGQGTKLEIK
notes: humanized 58F9G10, VH v3 x VL v1
In assay [6], B11 had a Bottom of 9890, a LogEC50 of -0.192, a Span of 93800 and a Top of 104000. In assay [2], this molecule had a Bottom of 276, a LogEC50 of 0.3, a Span of 13700 and a Top of 13900. In assay [3], this molecule had a Bottom of 75.4, a LogEC50 of 0.612, a Span of 104000 and a Top of 104000.
